This passage reports stoichiometry N and minimum concentration required to inhibit hemagglutination of trypsinized human erythrocytes by CSL (hapten inhibition, MIC) results from article PMC3008968.

In assay [1] the target is Cephalosporium lectin (Cephalosporium (isolated from the corneal smears of a keratitis patient)). In words: SEC; gel filtration on a Superdex G-75 column in PBS, calibrated with standard proteins; 57 kDa compared with the 14 kDa subunit mass by SDS-PAGE.
Assay [2] shares this target.

With Cephalosporium lectin (natural protein), the stoichiometry N in assay [1] was 4. The molecule “Mucin (porcine stomach, type III) (natural protein)” had a minimum concentration required to inhibit hemagglutination of trypsinized human erythrocytes by CSL (hapten inhibition, MIC) in assay [2] of 0.785 μg/50 μl.

B1: fetuin (fetal calf serum) (natural protein)
chain: IPLDPVAGYKEPACDDPDTEQAALAAVDYINKHLPRGYKHTLNQIDSVKVWPRRPTGEVYDIEIDTLETTCHVLDPTPLANCSVRQQTQHAVEGDCDIHVLKQDGQFSVLFTKCDSSPDSAEDVRKLCPDCPLLAPLNDSRVVHAVEVALATFNAESNGSYLQLVEISRAQFVPLPVSVSVEFAVAATDCIAKEVVDPTKCNLLAEKQYGFCKGSVIQKALGGEDVRVTCTLFQTQPVIPQPQPDGAEAEAPSAVPDAAGPTPSAAGPPVASVVVGPSVVAVPLPLHRAHYDLRHTFSGVASVESSSGEAFHVGKTPIVGQPSIPGGPVRLCPGRIRYFKI
As for B1, in assay [2], the minimum concentration required to inhibit hemagglutination of trypsinized human erythrocytes by CSL (hapten inhibition, MIC) was determined as 6.25 μg/50 μl.

B2: Asialofetuin (natural protein)
chain: IPLDPVAGYKEPACDDPDTEQAALAAVDYINKHLPRGYKHTLNQIDSVKVWPRRPTGEVYDIEIDTLETTCHVLDPTPLANCSVRQQTQHAVEGDCDIHVLKQDGQFSVLFTKCDSSPDSAEDVRKLCPDCPLLAPLNDSRVVHAVEVALATFNAESNGSYLQLVEISRAQFVPLPVSVSVEFAVAATDCIAKEVVDPTKCNLLAEKQYGFCKGSVIQKALGGEDVRVTCTLFQTQPVIPQPQPDGAEAEAPSAVPDAAGPTPSAAGPPVASVVVGPSVVAVPLPLHRAHYDLRHTFSGVASVESSSGEAFHVGKTPIVGQPSIPGGPVRLCPGRIRYFKI
modifications: asialo form (asialofetuin)
In the case of B2, the minimum concentration required to inhibit hemagglutination of trypsinized human erythrocytes by CSL (hapten inhibition, MIC) in assay [2] turned out to be 12.5 μg/50 μl.
